Consider 2 molecules from patent US20260226133A1.

In one experiment the target is CD22 (UniProt P20273). The experiment in a line: Malibu-Glo assay; NLuc fusion supernatant on RAJI cells, control K562 cells.
Another experiment concerns the target CD33 (UniProt P20138). As to the kind of experiment: Malibu-Glo assay; NLuc fusion supernatant on HL60 cells, control Jurkat cells.

Chain of CD22 (P20273 20-847 limits assumed): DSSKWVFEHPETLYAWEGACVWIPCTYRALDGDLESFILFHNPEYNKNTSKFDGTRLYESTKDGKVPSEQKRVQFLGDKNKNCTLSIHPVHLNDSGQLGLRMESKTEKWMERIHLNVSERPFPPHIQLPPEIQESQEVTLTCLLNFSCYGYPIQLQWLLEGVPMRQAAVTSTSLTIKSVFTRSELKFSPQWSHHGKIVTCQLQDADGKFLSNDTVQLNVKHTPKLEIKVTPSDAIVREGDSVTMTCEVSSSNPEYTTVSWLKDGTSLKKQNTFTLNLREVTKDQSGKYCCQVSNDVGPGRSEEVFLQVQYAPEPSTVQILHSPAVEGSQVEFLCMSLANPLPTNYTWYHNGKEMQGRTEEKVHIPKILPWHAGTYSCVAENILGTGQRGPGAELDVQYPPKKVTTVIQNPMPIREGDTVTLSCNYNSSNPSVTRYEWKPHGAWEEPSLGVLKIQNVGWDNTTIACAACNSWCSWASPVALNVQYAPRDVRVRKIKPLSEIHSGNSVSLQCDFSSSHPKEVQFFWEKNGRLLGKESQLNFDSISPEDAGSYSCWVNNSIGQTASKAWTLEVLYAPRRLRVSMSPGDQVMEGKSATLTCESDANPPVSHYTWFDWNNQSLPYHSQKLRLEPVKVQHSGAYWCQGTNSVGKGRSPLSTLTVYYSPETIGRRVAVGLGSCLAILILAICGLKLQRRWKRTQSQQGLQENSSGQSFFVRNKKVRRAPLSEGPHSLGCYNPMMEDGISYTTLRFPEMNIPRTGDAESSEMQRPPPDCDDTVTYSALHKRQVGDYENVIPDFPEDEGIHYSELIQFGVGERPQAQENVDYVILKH
Chain of CD33 (P20138 18-364 limits assumed): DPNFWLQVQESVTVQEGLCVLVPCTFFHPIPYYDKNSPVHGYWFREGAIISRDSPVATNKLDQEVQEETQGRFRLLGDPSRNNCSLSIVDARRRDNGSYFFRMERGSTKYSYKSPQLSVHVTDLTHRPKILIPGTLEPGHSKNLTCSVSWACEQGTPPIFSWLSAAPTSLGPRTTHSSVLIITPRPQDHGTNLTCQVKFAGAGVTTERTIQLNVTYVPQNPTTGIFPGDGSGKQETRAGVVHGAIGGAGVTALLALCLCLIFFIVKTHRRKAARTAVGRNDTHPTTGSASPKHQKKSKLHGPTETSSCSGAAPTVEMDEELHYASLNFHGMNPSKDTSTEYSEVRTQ

B1: hu-077-USC1 vHH (CD22), NLuc fusion (VHH, part only; not given: NLuc luciferase fusion partner, part only)
VHH, part: QVQLQESGPGLVKPSQTLSLTCTVSGGSITTGEFYWNWFRQPPGKGLEWMGAIAASGSTTYSPSFESRTSISRDTSKNQFSLKLSSVTAADTAVYYCGRSFGVAAVTTGQNRGQGTLVTVSS
Take B1: in the experiment with CD22, the Fold Change (Luc activity, target cell line over control cell line) was found to be 4.32 fold.

B2: hA873-G30S vHH (CD33), NLuc fusion (VHH, part only; not given: NLuc luciferase fusion partner, part only)
VHH, part: QVQLVESGGGVVQPGRSLRLSCVASGYTYSINCMGWFRQAPGKGREGIAAISTGGGTTGVADSVKGRFTISQDNAKNTVYLQMNSLRAEDTAMYYCAARSTYSGYACVYSEVNGYNYRGQGTQVTVSS
Molecule B2 yielded a Fold Change (Luc activity, target cell line over control cell line) in the experiment with CD33 of 17 fold.
